Values belong to the substance of their own block, whether it stands above or below them.
Legend:
[1] = biological target: T1, CHOK1-hCD47 cells highly expressing human CD47 (Homo sapiens, UniProt Q08722); assay: FACS binding to cells highly expressing CD47; settings: flow cytometry FACS
T1 construct: host or cells: CHOK1-hCD47 (CHO-K1)
Procedure: The binding ability of the antigen-binding protein to CHOK1-hCD47 cells (GenScript, M00581) highly expressing human CD47 was determined by flow cytometry FACS. Specifically, the cells were digested and resuspended in a DMEM complete medium, and the cell density was adjusted to 1×10^6 cells/mL. The cells were seeded in a 96-well V-bottom plate (Corning, #3894) at 100 µL/well, followed by the addition of test binding proteins diluted in a 3-fold gradient at a concentration that was 2 times the final concentration, each at 100 μL/well. The cells were incubated at 4° C. for 1 h away from light. Thereafter, the cells in each well were rinsed twice with 100 μL of pre-cooled PBS, and centrifuged at 500 g at 4° C. for 5 min, and then the supernatant was discarded. Thereafter, a fluorescent secondary antibody (Alexa Fluor 488-conjugated AffiniPure Goat Anti-Human IgG, Fcγ Fragment Specific, Jackson ImmunoResearch Inc., #109-545-098, diluted in a 1:500 ratio) was added at 100 μL/well, and the plate was incubated at 4° C. for 30 min away from light. The cells in each well were then rinsed twice with 100 μL of pre-cooled PBS and centrifuged at 500 g at 4° C. for 5 min, and then the supernatant was discarded. […] Fluorescence signal values were read using a BD FACS CANTOII flow cytometer, and the data were processed and analyzed using FlowJo v10 (FlowJo, LLC) software.

[2] = Molecular weight and coupling product components (DAR) by LC-MS; settings: coupling product without HIC purification, protein 4.1 mg/mL
From the text: In this example, liquid chromatography-mass spectrometry (LC-MS) was used to analyze the protein sample for molecular weight. Those skilled in the art can use different models of liquid chromatography (LC) and mass spectrometer (MS) to establish similar analytical methods according to the technical instructions and through experimental exploration. Only representative methods are listed in this example.
In certain specific embodiments, determination of the molecular weight of a protein sample required desaccharification on the sample to remove modifications such as saccharide chains, for example, the sample was processed with glycosidase PNGase F (NEB, #P0705L) at 37° C. for at least 4 h. For example, in all examples of the present invention, when the molecular weight of protein samples was determined, unless otherwise emphasized, the protein samples to be tested were subjected to desaccharification by the glycosidase PNGase F.
In certain specific embodiments, determination of the reduced molecular weight of a protein sample required reduction on the sample, for example, the sample was processed with […] dithiothreitol (DTT) at 37° C. for 10 min. For example, in all examples of the present invention, the samples after reduction were called reduced samples, and the samples without reduction were called non-reduced samples.
Buffer A was 0.1% formic acid FA dissolved in water, and buffer B was 0.1% formic acid FA dissolved in acetonitrile. Injection: about 1 μg; flow rate: 0.3 mL/min; and operation temperature: 80° C. When reduced samples were tested, buffer A and buffer B were mixed within 12 min to form a linear gradient: using 10-60% B for the first 8 min and 80% B for the last 4 min. When non-reduced samples were tested, buffer A and buffer B were mixed within 9 min to form a linear gradient: using 15-60% B for the first 6 min and 80% B for the last 3 min.
Buffer A was 0.1% formic acid FA dissolved in water, and buffer B was 0.1% formic acid FA dissolved in acetonitrile. Injection: about 10 μL; flow rate: 0.2-0.5 mL/min; and operation temperature: 80° C. […]

NCI-H929 cells [3] = assay: Cytotoxic killing experiment (Example 7.5), NCI-H929; format: cell-based, human; settings: 72 h, CellTiter-Glo; PR001046-ADC at 0.1 μg/mL and above; PR001046 0.01-1 μg/mL; mc-vc-PAB-MMAE 0.1-10 nM
From the text: The data were processed and analyzed by plotting using a GraphPad Prism 8 software. In this example, multiple groups of different PR001046-ADC samples were used, including samples containing different percentages of DAR=2 (D2) components before or after purification.

HCC1954 cells = assay: Cytotoxic killing experiment (Example 8.5), HCC1954; settings: 72 h, CellTiter-Glo; proteins up to 30 nM, mc-vc-PAB-MMAE up to 60 nM
Procedure: This example was to study the cell killing activity of the anti-5T4 antibody coupling product PR004432-ADC against a human breast cancer cell strain HCC1954 (ATCC, CRL-2338) highly expressing human 5T4.
The HCC1954 cells were seeded in a 96-well plate (Perkin Elmer, #6005225) at 4000 cells/50 μL/well and incubated overnight at 37° C. with 5% CO2. Then, a test sample serially pre-diluted was added at 50 μL/well. PR004432, PR004432-ADC and PR004433-ADC were diluted at a 3-fold concentration gradient from the highest final concentration of 30 nM, and mc-vc-PAB-MMAE was diluted at a 3-fold concentration gradient from the highest final concentration of 60 nM. In addition, a well without the test sample was set as a control well. Thereafter, the plates were incubated at 37° C. with 5% CO2 for 72 h, a CellTiter-Glo cell viability detection reagent (Promega, #G7573) was added, then the plates were incubated at room temperature for at least 10 min to obtain stable luminescence signals, and the luminescence values were detected using a microplate reader. The cell viability was calculated based on the luminescence values by the following formula:
Cell viability (%)=(A/B)×100% […]
(§1) The data were processed and analyzed by plotting using GraphPad Prism 8 software, and binding curves of the antibodies to target cells, EC50 values and other parameters were obtained through four-parameter nonlinear fitting.

HEK293T-hBCMA cells = assay: Cytotoxic killing experiment (Example 9.5), HEK293T-hBCMA; settings: 72 h, CellTiter-Glo; proteins up to 10 nM, mc-vc-PAB-MMAE up to 20 nM
Procedure: (§2) The HEK293T-hBCMA, NCI-H929, HEK293T and SNU-16 cells were seeded in 96-well plates (Perkin Elmer, #6005225) respectively, with the following seeded cell number: 2500 cells/50 μL/well (HEK293T-hBCMA), 5000 cells/50 μL/well (NCI-H929), 2500 cells/50 μL/well (HEK293T), and 5000 cells/50 μL/well (SNU-16). Then, the plates were incubated overnight at 37° C. with 5% CO2. Then, a test sample serially pre-diluted was added at 50 μL/well. PR004433, PR004433-ADC and PR004432-ADC were diluted at a 3-fold concentration gradient from the highest final concentration of 10 nM, and mc-vc-PAB-MMAE was diluted at a 3-fold concentration gradient from the highest final concentration of 20 nM. In addition, a well without the test sample was set as a control well. Thereafter, the plates were incubated at 37° C. with 5% CO2 for 72 h, a CellTiter-Glo cell viability detection reagent (Promega, #G7573) was added, then the plates were incubated at room temperature for at least 10 min to obtain stable luminescence signals, and the luminescence values were detected using a microplate reader. The cell viability was calculated based on the luminescence values by the following formula: […]
as §1

NCI-H929 cells [4] = assay: Cytotoxic killing experiment (Example 9.5), NCI-H929; settings: 72 h, CellTiter-Glo; proteins up to 10 nM, mc-vc-PAB-MMAE up to 20 nM
Procedure: as §2
The data were processed and analyzed by plotting using GraphPad Prism 8 software, and binding curves of the antibodies to target cells, EC50 values and other parameters were obtained through four-parameter nonlinear fitting. […]

T1 sequence (Q08722 19-323): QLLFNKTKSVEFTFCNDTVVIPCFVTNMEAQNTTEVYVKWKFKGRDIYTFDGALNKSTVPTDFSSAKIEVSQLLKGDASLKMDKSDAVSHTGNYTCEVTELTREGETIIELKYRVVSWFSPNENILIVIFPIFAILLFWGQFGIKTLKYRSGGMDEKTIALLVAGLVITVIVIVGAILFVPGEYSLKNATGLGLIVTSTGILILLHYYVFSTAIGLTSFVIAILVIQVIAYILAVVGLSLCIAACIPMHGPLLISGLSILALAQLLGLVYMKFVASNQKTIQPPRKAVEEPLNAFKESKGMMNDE

binding activity to CD47 (CHOK1-hCD47 cells) [1]: strong specific binding activity
Substance: PR006345: SIRPa-Fc fusion protein: ALX148 SIRPa variant fused with human IgG1 hinge and Fc, SEQ ID NO: 149
Average DAR ([2]; Experiment 1, TCEP 1.5 equivalents): 1.89 | Average DAR ([2]; Experiment 2, TCEP 2.0 equivalents): 2.23 | Average DAR ([2]; Experiment 3, TCEP 3.0 equivalents): 2.91

Substance: mc-vc-PAB-MMAE [reference compound]
cell killing of BCMA-positive cells NCI-H929 (NCI-H929 cells [3]): cannot effectively kill | cytotoxic killing against HCC1954 cells (HCC1954 cells): only has a killing effect at the highest concentration (60 nM) | cytotoxic killing against HEK293T-hBCMA cells (HEK293T-hBCMA cells): cannot produce effective killing | cytotoxic killing against NCI-H929 cells (NCI-H929 cells [4]): cannot produce effective killing

Source: patent publication US20240050583A1, “PROTEIN-DRUG CONJUGATE AND SITE-SPECIFIC CONJUGATING METHOD” (HARBOUR BIOMED (SHANGHAI) CO., LTD, priority 2020, published 2024)
